According to US20150376265A1 (Genentech, published 2015):

Target: T1, Complex I with gH W168R, on virions of HB1 - mutant virus 6 (HCMV, UniProt P12824 24-743; P16832 31-278; P16837 28-171; F5HCP3 26-214; F5HET4 19-129)
T1 chain 1: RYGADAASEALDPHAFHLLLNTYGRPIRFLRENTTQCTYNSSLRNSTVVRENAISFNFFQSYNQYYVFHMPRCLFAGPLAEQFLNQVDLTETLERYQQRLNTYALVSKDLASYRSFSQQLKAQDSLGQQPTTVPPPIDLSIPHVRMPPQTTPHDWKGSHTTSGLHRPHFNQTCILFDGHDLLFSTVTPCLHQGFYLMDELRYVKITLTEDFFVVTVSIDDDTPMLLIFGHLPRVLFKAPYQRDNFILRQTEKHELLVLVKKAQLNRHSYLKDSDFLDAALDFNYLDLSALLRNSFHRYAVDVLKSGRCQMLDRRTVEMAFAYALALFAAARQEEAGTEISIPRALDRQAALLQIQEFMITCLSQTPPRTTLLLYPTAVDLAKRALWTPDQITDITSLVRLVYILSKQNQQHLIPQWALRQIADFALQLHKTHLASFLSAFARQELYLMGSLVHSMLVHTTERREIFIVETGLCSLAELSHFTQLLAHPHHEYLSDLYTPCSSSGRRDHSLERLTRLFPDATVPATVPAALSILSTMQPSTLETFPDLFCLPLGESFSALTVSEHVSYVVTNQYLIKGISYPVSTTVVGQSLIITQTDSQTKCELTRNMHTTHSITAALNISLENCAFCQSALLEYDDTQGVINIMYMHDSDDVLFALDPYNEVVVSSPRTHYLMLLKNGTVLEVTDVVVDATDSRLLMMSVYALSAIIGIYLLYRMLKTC
T1 chain 2: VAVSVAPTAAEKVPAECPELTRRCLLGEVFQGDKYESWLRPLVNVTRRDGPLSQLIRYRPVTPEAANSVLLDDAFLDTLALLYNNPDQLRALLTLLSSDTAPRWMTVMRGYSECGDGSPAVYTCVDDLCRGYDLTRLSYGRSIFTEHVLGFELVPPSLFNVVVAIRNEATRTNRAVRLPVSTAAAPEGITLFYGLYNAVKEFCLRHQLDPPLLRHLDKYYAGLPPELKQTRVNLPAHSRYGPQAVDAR
T1 chain 3: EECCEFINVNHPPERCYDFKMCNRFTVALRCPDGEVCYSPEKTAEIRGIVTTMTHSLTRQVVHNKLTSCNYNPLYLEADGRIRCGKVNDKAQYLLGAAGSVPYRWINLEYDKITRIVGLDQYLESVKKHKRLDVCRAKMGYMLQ
T1 chain 4: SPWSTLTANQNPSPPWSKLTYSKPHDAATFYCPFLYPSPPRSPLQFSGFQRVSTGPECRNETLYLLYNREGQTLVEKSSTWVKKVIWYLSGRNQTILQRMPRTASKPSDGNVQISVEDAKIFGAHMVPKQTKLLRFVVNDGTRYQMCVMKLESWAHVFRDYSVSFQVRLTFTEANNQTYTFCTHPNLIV
T1 chain 5: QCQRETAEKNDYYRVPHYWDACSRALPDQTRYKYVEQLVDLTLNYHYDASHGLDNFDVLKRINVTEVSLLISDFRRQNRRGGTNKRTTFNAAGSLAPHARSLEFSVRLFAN
Experiment: cell-based or functional assay

B1: hu8G8 (lambda4 8G8 graft and hu8G8.VH1) (antibody, V domains shown)
VH: EVQLVQSGAEVKKPGASVKVSCKASGYTFTNYGMNWVRQAPGQGLEWIGWINTYTGEPTYADDFKGRVTITRDTSTSTAYLELSSLRSEDTAVYYCARSWYYVSNYWYFDVWGQGTLVTVSS
VL: SVLTQSPSASASLGASVKLTCTLSSQHSTYTIEWYQQQPGKGPRYLMKLKKDGSHSTGDGIPDRFSGSSSGADRYLTISNLQSEDEADYYCGVGDTIKEQFVYVFGGGTKLTVLG
notes: also called hu8G8 with VH1; Humanized 8G8 with VH1
  hu8G8 EC50, neutralisation of HB1 - mutant virus 6, Data Set 2: 1 ng/mL
